Values quoted from earlier work in PMC4316816.

Biological target: ANP (UniProt P01160)
UniProt P01160, sequence (P01160 124-151): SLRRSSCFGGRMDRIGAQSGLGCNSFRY

GC-A/NPRA (from UniProt P16066)
Kd: 24 nM
